Experimental data from patent US20190276511A1 (BIONTECH RNA PHARMACEUTICALS, published 2019).
Like-named read-outs stand apart in the source and are kept apart here.

T1: OX40 receptor on cells (human, UniProt P43489 29-277)
T1 sequence (looked up): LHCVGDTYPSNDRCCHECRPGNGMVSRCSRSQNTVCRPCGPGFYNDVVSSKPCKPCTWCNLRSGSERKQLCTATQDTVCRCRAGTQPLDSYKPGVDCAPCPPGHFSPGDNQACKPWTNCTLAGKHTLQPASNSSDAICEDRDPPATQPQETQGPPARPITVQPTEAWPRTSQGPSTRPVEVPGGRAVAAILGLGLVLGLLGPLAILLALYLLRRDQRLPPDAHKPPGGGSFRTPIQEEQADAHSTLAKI

T2: CD27-Fc (human, UniProt P26842 20-191)
T2 construct: extracellular domain; hinge included for covalent assembly; also called CD27 receptor-Fc fusion protein; not shown: human Fc gamma 1 region including the hinge region
T2 sequence (looked up): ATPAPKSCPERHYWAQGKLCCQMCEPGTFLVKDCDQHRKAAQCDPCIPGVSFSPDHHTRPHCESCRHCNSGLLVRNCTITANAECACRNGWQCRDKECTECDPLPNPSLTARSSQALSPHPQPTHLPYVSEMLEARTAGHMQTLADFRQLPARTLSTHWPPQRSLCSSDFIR

T3: OX40-Fc (human, UniProt P43489 29-214)
T3 construct: extracellular domain; hinge included for covalent assembly; also called OX40 receptor-Fc fusion protein; not shown: human Fc gamma 1 region including the hinge region
T3 sequence (looked up): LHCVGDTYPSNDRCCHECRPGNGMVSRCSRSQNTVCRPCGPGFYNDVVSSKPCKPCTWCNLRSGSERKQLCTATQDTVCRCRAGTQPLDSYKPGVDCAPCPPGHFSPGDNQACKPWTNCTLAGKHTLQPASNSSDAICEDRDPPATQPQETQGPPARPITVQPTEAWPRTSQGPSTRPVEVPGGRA


Legend:
[1] = biological target: T4, CD40-Fc (human, UniProt P25942 21-193); test: ELISA, coated receptor-Fc
T4 construct: extracellular domain; hinge included for covalent assembly; also called CD40 receptor-Fc fusion protein; not shown: human Fc gamma 1 region including the hinge region

[2] = biological target: T5, 4-1BB-Fc (human, UniProt Q07011 24-186); test: ELISA, coated receptor-Fc
T5 construct: extracellular domain; hinge included for covalent assembly; also called 4-1BB receptor-Fc fusion protein; not shown: human Fc gamma 1 region including the hinge region

[3] = biological target: T1, OX40 receptor on cells; test: cell-based or functional assay
[4] = biological target: T2, CD27-Fc; test: ELISA, coated receptor-Fc
Protocol: (§1) Receptor binding of the Duokines was analyzed by ELISA using fusion proteins of the extracellular region of CD40, CD27, 4-1BB and OX40, respectively, with the human Fcγ1 region including the hinge region for covalent assembly (CD40-Fc, CD27-Fc, 4-1BB-Fc, OX40-Fc). Receptor-Fc fusion proteins (200 ng/well) were coated overnight at 4° C. and remaining binding sites were blocked with PBS, 2% skimmed milk powder (2% MPBS).

[5] = biological target: T3, OX40-Fc; test: ELISA, coated receptor-Fc
[6] = biological target: T6, CD40 receptor on cells (human, UniProt P25942 21-277); test: cell-based or functional assay
[7] = biological target: T4, CD40-Fc; test: ELISA, coated receptor-Fc; remark: listed apart in the source
Protocol: as §1, with “of the single-chain Duokines was” for “of the Duokines was”, “(2% MPBS). […] The interactions between scDuokine and receptor were dose-dependent with EC₅₀ values in the low nanomolar ranges (FIG. 11 AB, Tab. 2).” for “(2% MPBS).”

[8] = biological target: T2, CD27-Fc; test: ELISA, coated receptor-Fc; remark: listed apart in the source
Protocol: as §1, with “of the single-chain Duokines was” for “of the Duokines was”, “(2% MPBS). […] The interactions between scDuokine and receptor were dose-dependent with EC₅₀ values in the low nanomolar ranges (FIG. 11 AB, Tab. 2).” for “(2% MPBS).”

[9] = biological target: T6, CD40 receptor on cells; test: cell-based or functional assay; remark: listed apart in the source
[10] = biological target: T4, CD40-Fc; test: ELISA, coated receptor-Fc; remark: listed apart in the source
Protocol: as §1

T4 sequence (P25942 21-193 limits assumed): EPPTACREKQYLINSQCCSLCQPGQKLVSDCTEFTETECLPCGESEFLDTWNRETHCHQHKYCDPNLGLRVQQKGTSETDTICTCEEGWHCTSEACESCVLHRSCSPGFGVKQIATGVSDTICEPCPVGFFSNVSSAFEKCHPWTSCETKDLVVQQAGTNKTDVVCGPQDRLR
T6 sequence (P25942 21-277): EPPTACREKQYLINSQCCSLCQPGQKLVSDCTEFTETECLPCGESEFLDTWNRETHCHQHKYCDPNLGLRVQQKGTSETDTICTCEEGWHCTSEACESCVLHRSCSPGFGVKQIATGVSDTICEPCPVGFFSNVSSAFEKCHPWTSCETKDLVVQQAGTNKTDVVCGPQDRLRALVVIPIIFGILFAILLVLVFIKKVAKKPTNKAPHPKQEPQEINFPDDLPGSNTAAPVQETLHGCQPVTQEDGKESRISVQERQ

Row | binding result [1] | binding result [2] | Receptor activation (EC50, nM) [3] [nM] | EC50 [4] [nM] | binding result [5] | Receptor activation (EC50, nM) [6] [nM] | EC50 [7] [nM] | EC50 [8] [nM] | Receptor activation (EC50, nM) [9] [nM] | EC50 [10] [nM] | Binder
1 | no binding (tested: 100 nM (FIG. 4)) | no binding (tested: 100 nM (FIG. 4)) | 6.58 | 1.7 |  |  |  |  |  |  | OX40L-CD27L (ligand, Duokine from HEK293, FLAG-purified; VH leader left out; homotrimer by SEC; also called Duokine OX40L-CD27L; not shown: N-terminal FLAG tag) QVSHRYPRIQSIKVQFTEYKKEKGFILTSQKEDEIMKVQNNSVIINCDGFYLISLKGYFSQEVNISLHYQKDEEPLFQLKKVRSVNSLMVASLTYKDKVYLNVTTDNTSLDDFHVNGGELILIHQNPGEFCVLGGGGSGGGGSGGGGSSLGWDVAELQLNHTGPQQDPRLYWQGGPALGRSFLHGPELDKGQLRIHRDGIYMVHIQVTLAICSSTTASRHHPTTLAVGICSPASRSISLLRLSFHQGCTIASQRLTPLARGDTLCTNLTGTLLPSRNTDETFFGVQWVRP
2 |  | no binding (tested: 100 nM (FIG. 10)) |  |  | no binding (tested: 100 nM (FIG. 10)) | 3.7 | 8.04 | 3.3 |  |  | scCD27L-scCD40L (ligand, scDuokine from HEK293, FLAG-purified; VH leader left out; also called single-chain Duokine scCD27L-scCD40L; not shown: N-terminal FLAG tag) SLGWDVAELQLNHTGPQQDPRLYWQGGPALGRSFLHGPELDKGQLRIHRDGIYMVHIQVTLAICSSTTASRHHPTTLAVGICSPASRSISLLRLSFHQGCTIASQRLTPLARGDTLCTNLTGTLLPSRNTDETFFGVQWVRPGGGSGGGSLGWDVAELQLNHTGPQQDPRLYWQGGPALGRSFLHGPELDKGQLRIHRDGIYMVHIQVTLAICSSTTASRHHPTTLAVGICSPASRSISLLRLSFHQGCTIASQRLTPLARGDTLCTNLTGTLLPSRNTDETFFGVQWVRPGGGSGGGSLGWDVAELQLNHTGPQQDPRLYWQGGPALGRSFLHGPELDKGQLRIHRDGIYMVHIQVTLAICSSTTASRHHPTTLAVGICSPASRSISLLRLSFHQGCTIASQRLTPLARGDTLCTNLTGTLLPSRNTDETFFGVQWVRPGGGGSGGGTGGGGSGDQNPQIAAHVISEASSKTTSVLQWAEKGYYTMSNNLVTLENGKQLTVKRQGLYYIYAQVTFCSNREASSQAPFIASLCLKSPGRFERILLRAANTHSSAKPCGQQSIHLGGVFELQPGASVFVNVTDPSQVSHGTGFTSFGLLKLGGGSGGGGDQNPQIAAHVISEASSKTTSVLQWAEKGYYTMSNNLVTLENGKQLTVKRQGLYYIYAQVTFCSNREASSQAPFIASLCLKSPGRFERILLRAANTHSSAKPCGQQSIHLGGVFELQPGASVFVNVTDPSQVSHGTGFTSFGLLKLGGGSGGGGDQNPQIAAHVISEASSKTTSVLQWAEKGYYTMSNNLVTLENGKQLTVKRQGLYYIYAQVTFCSNREASSQAPFIASLCLKSPGRFERILLRAANTHSSAKPCGQQSIHLGGVFELQPGASVFVNVTDPSQVSHGTGFTSFGLLKL
3 |  | no binding (tested: 100 nM (FIG. 4)) |  | 5.9 | no binding (tested: 100 nM (FIG. 4)) |  |  |  | 2.99 | 3.31 | CD27L-CD40L (ligand, Duokine from HEK293, FLAG-purified; VH leader left out; homotrimer by SEC; also called Duokine CD27L-CD40L; not shown: N-terminal FLAG tag) SLGWDVAELQLNHTGPQQDPRLYWQGGPALGRSFLHGPELDKGQLRIHRDGIYMVHIQVTLAICSSTTASRHHPTTLAVGICSPASRSISLLRLSFHQGCTIASQRLTPLARGDTLCTNLTGTLLPSRNTDETFFGVQWVRPGGGGSGGGGSGGGGSGDQNPQIAAHVISEASSKTTSVLQWAEKGYYTMSNNLVTLENGKQLTVKRQGLYYIYAQVTFCSNREASSQAPFIASLCLKSPGRFERILLRAANTHSSAKPCGQQSIHLGGVFELQPGASVFVNVTDPSQVSHGTGFTSFGLLKL
